Here are results for 1 molecule from patent US20060177826A1 (SERUM BIOMEDICAL INSTITUTE, published 2006).

The target in the experiment is T1, human beta-FSH subunit (SDK-X1X2 expression product) (human, UniProt P01225 19-129).
T1 construct: Expressed from pTPKBFSH in co-transfected COS-7L and CHO-S cells and tested as secreted protein in the culture supernatant; also called β subunit of human FSH
The experiment is described as follows: FSH-IRMA sandwich immunoradiometric assay (one mAb for the alpha subunit, one for the beta subunit) on supernatant of co-transfected cells; detects only the complete alpha and beta complex. The method, then:
Following transfection, the cells were cultured in a selective medium containing 1000 μg/ml Geneticine and 400 μg/ml Blasticidin for 7 days. Geneticine-Blasticidine-resistant cells were transferred in a new culture medium containing Geneticine (200 μg/ml) and Blasticidin (200 μg/mL), and cultured to a cell density of 10⁶ cells/ml. The supernatant of this culture was than tested for the presence of the multisubunit (alpha subunit and beta subunit non-covalently associated) FSH complex.
The presence of the alpha and beta FSH complex was detected using the BIOSOURCE FSH-IRMA Kit (Biosource Europe S.A., Cat # KIP0841-KIP0844), an immunoradiometric assay kit for the quantitation of Follicle Stimulating Hormone (FSH). This FSH-IRMA assay is based on the use of two monoclonal antibodies, one specific for the alpha subunit of FSH and one for the beta subunit of FSH. Thus this assay only detects the complete alpha and beta FSH complex. The supernatant of pLenti6/V5-glycalA and the pTPKBFSH co-transfected cells was tested using the FSH-IRMA kit according to manufacturer's instructions.

T1 sequence (P01225 19-129 limits assumed): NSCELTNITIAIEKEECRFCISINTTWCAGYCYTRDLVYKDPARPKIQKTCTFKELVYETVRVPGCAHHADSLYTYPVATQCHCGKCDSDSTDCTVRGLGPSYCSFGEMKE

B1: human alpha-FSH subunit (glycalA expression product) (ligand)
chain: not shown
notes: Expressed from pLenti6/V5-glycalA in co-transfected COS-7L and CHO-S cells and tested as secreted protein in the culture supernatant; also called alpha subunit of FSH
Turning to B1, the binding result is “binds”.
